Experimental data taken from patent US20240279304A1, “DSG2 COMPOSITIONS AND METHODS” (Arvada Therapeutics, Inc., priority 2021, published 2024).

Key:
anti-DSG2 antibody [1] = experiment: anti-DSG2 antibody MSD assay; inhibition by the fusion polypeptide (fraction C per table title); antibody at 200 ng/mL
anti-DSG2 antibody [2] = experiment: anti-DSG2 antibody MSD assay; inhibition by the fusion polypeptide (fraction C per table title); antibody at 1000 ng/mL
[3] = Dynamic light scattering (DLS) of DSG2 fusion polypeptides; type: physicochemical; details: average polymer distribution index
From the text: 6 candidates were compared to the reference sample.

anti-DSG2 antibody [4] = experiment: anti-DSG2 antibody meso scale discovery (MSD) assay, blocking of anti-DSG2 antibody; type: binding; details: for % inhibition: fraction C (table title)
Description: (§1) The DSG2 fusion polypeptides were tested for the ability to block anti-DSG2 antibody by an anti-DSG2 antibody meso scale discovery (MSD) assay. […] The DSG2 fusion polypeptides were subjected to size exclusion chromatography and different elution fractions were examined. […] As shown in Table 7 and FIG. 1B, FIG. 1C, and FIG. 1D, enriching for fraction C improved the ability of the DSG2 fusion polypeptides to block ARVC patient serum.

anti-DSG2 antibody [5] = experiment: electrochemical immunoassay; fusion polypeptide at 5 mg/mL (so in the source), antibody at 500 ng/mL
[6] = tested on: ARVC serum (anti-DSG2 antibodies in serum obtained from ARVC patients); experiment: anti-DSG2 antibody MSD assay, blocking of ARVC patient serum; type: binding, human; set-up: % inhibition: concentration or dose not given beside the values; details: for effect of enriching for fraction C on ability to block ARVC patient serum (in words): fraction C vs whole preparation, FIG. 1B-1D; for % inhibition: fraction C (table title)
Description: as §1
ARVC diagnosis is based on complex tool known as Task Force Criteria, which can lead to varying levels of conviction about ARVC diagnosis. The utility of DSG2 antibodies as an indicator of ARVC disease state and severity was explored. Approximately 50 cc serum was collected from diagnosed ARVC patients. A total of 10 ARVC patients and 5 healthy controls were used for the analysis. ARVC serum samples were separated into more robust diagnosis and less robust diagnosis, based on available data in the patient medical records and anti-DSG2 antibody levels were compared using an anti-DSG2 antibody meso scale discovery (MSD)-based assay.

[7] = sample: Anti-DSG2 antibody (200 ng/mL) control
[8] = sample: Anti-DSG2 antibody (1000 ng/mL) control

## DSG2-(IgG1)Fc (DSG2FP#2) (Fc fusion)
anti-DSG2 antibody [1]
  % inhibition: 54.5%
anti-DSG2 antibody [2]
  % inhibition: 81.6%

## DSG2FP#6: DSG2 extracellular domain (50-609 of SEQ ID NO: 1); IgG4 Fc 99-327 (S228P, L235E, P329G) SEQ ID NO: 32
[3]
  PDI: 0.32
anti-DSG2 antibody [4]
  ability to bind to and block anti-DSG2 antibody (in words): able to bind to and block anti-DSG2 antibodies

## DSG2FP#5: IgG1 Fc 104-330 (L234A, L235A, P329G; SEQ ID NO: 31); DSG2 extracellular domain (50-609 of SEQ ID NO: 1)
[3]
  PDI: 0.31
anti-DSG2 antibody [4]
  ability to bind to and block anti-DSG2 antibody (in words): able to bind to and block anti-DSG2 antibodies

## DSG2-GGGGS-(IgG4)Fc (DSG2FP#7) (Fc fusion)
anti-DSG2 antibody [5]
  % inhibition: > 80%

## DSG2-(IgG4)Fc (DSG2FP#6) (Fc fusion)
anti-DSG2 antibody [5]
  % inhibition: > 80%

## DSG2-EAAAK-(IgG1)Fc (DSG2FP#4) (Fc fusion)
anti-DSG2 antibody [1]
  % inhibition: 61.2%
anti-DSG2 antibody [2]
  % inhibition: 85.5%

## DSG2-GGGGS-(IgG1)Fc (DSG2FP#3) (Fc fusion)
anti-DSG2 antibody [1]
  % inhibition: 61.2%
anti-DSG2 antibody [2]
  % inhibition: 85.5%

## DSG2FP#7: DSG2 extracellular domain (50-609 of SEQ ID NO: 1); GGGGS peptide linker; IgG4 Fc domain
[3]
  PDI: 0.30
anti-DSG2 antibody [4]
  ability to bind to and block anti-DSG2 antibody (in words): able to bind to and block anti-DSG2 antibodies

B1: DSG2FP#3: DSG2 extracellular domain (50-609); linker GGGGS; IgG1 Fc 104-330 (L234A, L235A, P329G) SEQ ID NO: 31 (protein)
chain: AWITAPVALREGEDLSKKNPIAKIHSDLAEERGLKITYKYTGKGITEPPFGIFVFNKDTGELNVTSILDREETPFFLLTGYALDARGNNVEKPLELRIKVLDINDNEPVFTQDVFVGSVEELSAAHTLVMKINATDADEPNTLNSKISYRIVSLEPAYPPVFYLNKDTGEIYTTSVTLDREEHSSYTLTVEARDGNGEVTDKPVKQAQVQIRILDVNDNIPVVENKVLEGMVEENQVNVEVTRIKVFDADEIGSDNWLANFTFASGNEGGYFHIETDAQTNEGIVTLIKEVDYEEMKNLDFSVIVANKAAFHKSIRSKYKPTPIPIKVKVKNVKEGIHFKSSVISIYVSESMDRSSKGQIIGNFQAFDEDTGLPAHARYVKLEDRDNWISVDSVTSEIKLAKLPDFESRYVQNGTYTVKIVAISEDYPRKTITGTVLINVEDINDNCPTLIEPVQTICHDAEYVNVTAEDLDGHPNSGPFSFSVIDKPPGMAEKWKIARQESTSVLLQQSEKKLGRSEIQFLISDNQGFSCPEKQVLTLTVCECLHGSGCREAQHDSYVGGGGGGSDKTHTCPPCPAPEAAGGPSVFLFPPKPKDTLMISRTPEVTCVVVDVSHEDPEVKFNWYVDGVEVHNAKTKPREEQYNSTYRVVSVLTVLHQDWLNGKEYKCKVSNKALGAPIEKTISKAKGQPREPQVYTLPPSRDELTKNQVSLTCLVKGFYPSDIAVEWESNGQPENNYKTTPPVLDSDGSFFLYSKLTVDKSRWQQGNVFSCSVMHEALHNHYTQKSLSLSPGK
[6]
  effect of enriching for fraction C on ability to block ARVC patient serum (in words): more pronounced
[6]; sample: ARVC serum 1
  % inhibition: 9.2%
[6]; sample: ARVC serum 2
  % inhibition: 27.6%
[6]; sample: ARVC serum 3
  % inhibition: 15.5%
[6]; sample: ARVC serum 4
  % inhibition: −5.6%
[6]; sample: ARVC serum 5
  % inhibition: 20.6%
[3]
  PDI: 0.30
anti-DSG2 antibody [4]
  ability to bind to and block anti-DSG2 antibody (in words): able to bind to and block anti-DSG2 antibodies
anti-DSG2 antibody [4]; [7]
  % inhibition: 61.2%
anti-DSG2 antibody [4]; [8]
  % inhibition: 85.5%
anti-DSG2 antibody [4]; sample: no antibody control
  % inhibition: 0.7%

B2: DSG2FP#4: DSG2 extracellular domain (50-609); linker EAAAK; IgG1 Fc 104-330 (L234A, L235A, P329G) SEQ ID NO: 31 (protein)
chain: AWITAPVALREGEDLSKKNPIAKIHSDLAEERGLKITYKYTGKGITEPPFGIFVFNKDTGELNVTSILDREETPFFLLTGYALDARGNNVEKPLELRIKVLDINDNEPVFTQDVFVGSVEELSAAHTLVMKINATDADEPNTLNSKISYRIVSLEPAYPPVFYLNKDTGEIYTTSVTLDREEHSSYTLTVEARDGNGEVTDKPVKQAQVQIRILDVNDNIPVVENKVLEGMVEENQVNVEVTRIKVFDADEIGSDNWLANFTFASGNEGGYFHIETDAQTNEGIVTLIKEVDYEEMKNLDFSVIVANKAAFHKSIRSKYKPTPIPIKVKVKNVKEGIHFKSSVISIYVSESMDRSSKGQIIGNFQAFDEDTGLPAHARYVKLEDRDNWISVDSVTSEIKLAKLPDFESRYVQNGTYTVKIVAISEDYPRKTITGTVLINVEDINDNCPTLIEPVQTICHDAEYVNVTAEDLDGHPNSGPFSFSVIDKPPGMAEKWKIARQESTSVLLQQSEKKLGRSEIQFLISDNQGFSCPEKQVLTLTVCECLHGSGCREAQHDSYVGEAAAKDKTHTCPPCPAPEAAGGPSVFLFPPKPKDTLMISRTPEVTCVVVDVSHEDPEVKFNWYVDGVEVHNAKTKPREEQYNSTYRVVSVLTVLHQDWLNGKEYKCKVSNKALGAPIEKTISKAKGQPREPQVYTLPPSRDELTKNQVSLTCLVKGFYPSDIAVEWESNGQPENNYKTTPPVLDSDGSFFLYSKLTVDKSRWQQGNVFSCSVMHEALHNHYTQKSLSLSPGK
[6]; sample: ARVC serum 1
  % inhibition: 6.0%
[6]; sample: ARVC serum 2
  % inhibition: 9.2%
[6]; sample: ARVC serum 3
  % inhibition: −8.0%
[6]; sample: ARVC serum 4
  % inhibition: 0.8%
[6]; sample: ARVC serum 5
  % inhibition: 2.0%
[3]
  PDI: 0.32
anti-DSG2 antibody [4]
  ability to bind to and block anti-DSG2 antibody (in words): able to bind to and block anti-DSG2 antibodies
anti-DSG2 antibody [4]; [7]
  % inhibition: 61.2%
anti-DSG2 antibody [4]; [8]
  % inhibition: 85.5%
anti-DSG2 antibody [4]; sample: no antibody control
  % inhibition: 0.7%

B3: DSG2FP#2: DSG2 extracellular domain (50-609 of SEQ ID NO: 1); IgG1 Fc 104-330 (L234A, L235A, P329G) SEQ ID NO: 31 (protein)
chain: AWITAPVALREGEDLSKKNPIAKIHSDLAEERGLKITYKYTGKGITEPPFGIFVFNKDTGELNVTSILDREETPFFLLTGYALDARGNNVEKPLELRIKVLDINDNEPVFTQDVFVGSVEELSAAHTLVMKINATDADEPNTLNSKISYRIVSLEPAYPPVFYLNKDTGEIYTTSVTLDREEHSSYTLTVEARDGNGEVTDKPVKQAQVQIRILDVNDNIPVVENKVLEGMVEENQVNVEVTRIKVFDADEIGSDNWLANFTFASGNEGGYFHIETDAQTNEGIVTLIKEVDYEEMKNLDFSVIVANKAAFHKSIRSKYKPTPIPIKVKVKNVKEGIHFKSSVISIYVSESMDRSSKGQIIGNFQAFDEDTGLPAHARYVKLEDRDNWISVDSVTSEIKLAKLPDFESRYVQNGTYTVKIVAISEDYPRKTITGTVLINVEDINDNCPTLIEPVQTICHDAEYVNVTAEDLDGHPNSGPFSFSVIDKPPGMAEKWKIARQESTSVLLQQSEKKLGRSEIQFLISDNQGFSCPEKQVLTLTVCECLHGSGCREAQHDSYVGDKTHTCPPCPAPEAAGGPSVFLFPPKPKDTLMISRTPEVTCVVVDVSHEDPEVKFNWYVDGVEVHNAKTKPREEQYNSTYRVVSVLTVLHQDWLNGKEYKCKVSNKALGAPIEKTISKAKGQPREPQVYTLPPSRDELTKNQVSLTCLVKGFYPSDIAVEWESNGQPENNYKTTPPVLDSDGSFFLYSKLTVDKSRWQQGNVFSCSVMHEALHNHYTQKSLSLSPGK
[6]
  effect of enriching for fraction C on ability to block ARVC patient serum (in words): more pronounced
[6]; sample: ARVC serum 1
  % inhibition: 3.0%
[6]; sample: ARVC serum 2
  % inhibition: 33.5%
[6]; sample: ARVC serum 3
  % inhibition: 26.0%
[6]; sample: ARVC serum 4
  % inhibition: 51.1%
[6]; sample: ARVC serum 5
  % inhibition: 41.8%
[3]
  PDI: 0.32
anti-DSG2 antibody [4]
  ability to bind to and block anti-DSG2 antibody (in words): able to bind to and block anti-DSG2 antibodies
anti-DSG2 antibody [4]; [7]
  % inhibition: 54.5%
anti-DSG2 antibody [4]; [8]
  % inhibition: 81.6%
anti-DSG2 antibody [4]; sample: no antibody control
  % inhibition: −19.1%
